Measurements reported in publication PMC5389796.

Assays:
TALK-1 T3-FLAG (human) [1] = target: TALK-1 T3-FLAG (human) (UniProt Q96T55)
[2] = target: TALK-1 T3 A277E (rs1535500)-FLAG (human) (UniProt Q96T55)
TALK-1 T3-FLAG (human) [3] = target: TALK-1 T3-FLAG (human) (UniProt Q96T55); remark: listed apart in the source

Substance: iOPN-V5 (from UniProt P10451-1 17-314) (natural protein)
- whole-cell K2P currents of T-REx cells with induced TALK-1 T3, increase with iOPN compared to the PKM2 control, at -60, -30, 0, 30 and 60 mV (TALK-1 T3-FLAG (human) [1]): 19.6 pA/pF
- whole-cell K2P currents of T-REx cells with induced TALK-1 T3 A277E, increase with iOPN compared to the PKM2 control, at -60, -30, 0, 30 and 60 mV [2]: 18.7 pA/pF
- change of resting membrane potential (ΔVm), TALK-1 T3 with iOPN against TALK-1 T3 with PKM2, perforated patch (TALK-1 T3-FLAG (human) [3]): -7.7 mV
- resting membrane potential (Vm) of T-REx cells expressing TALK-1 T3 with iOPN, perforated patch (TALK-1 T3-FLAG (human) [3]): -80.2 mV
